Publication PMC7772355, “Transmembrane Peptides as a New Strategy to Inhibit Neuraminidase-1 Activation” (Frontiers in Cell and Developmental Biology, 2020)

B1: mutIntPepR (peptide)
peptide: GSMWHHHHHHGGELVDPVVVAIAVVTSSIIAFFSN
notes: holds the His6; not NEU1; human NEU1, TM2 segment with four point mutations; The gene construct had GB1 as leading fusion protein followed by a thrombin cleavage site; the printed peptide begins with GS, so GB1 was probably cleaved off (surmised); Unlabeled; embedded in DPC micelles; also called recombinant version of the four-point mutated peptide IntPep; source: continuous exchange cell-free …
B2: hNEU1-TMS2 (domain or fragment)
chain: not shown
modifications: 15N-labeled
notes: human NEU1, residues R305-R341, holding the transmembrane segment TM2; Embedded in DPC micelles for NMR; also called hNEU1/TMS2 fragment; hNEU1 TM2 segment; source: bacterial expression and purification as described in Maurice et al. (2016)

Tests used:
hNEU1-TMS2 = molecular target: B2; experiment: NMR titration; heterodimerisation: 0.3 mM 15N-labeled hNEU1-TMS2 in DPC micelles (D/P 120) titrated with unlabeled recombinant peptide in micelles up to N/I of 1 (D/P near 100); pH 6.5, 20 mM sodium phosphate, 313 K, 1H/15N-TROSY; conditions: both partners purified
[1] = molecular target: the molecule itself; experiment: NMR titration; homodimerisation: 0.4 mM 15N-labeled hNEU1-TMS2 in DPC micelles, D/P 50 titrated with DPC to 110 (further samples to D/P 200); pH 6.5, 20 mM sodium phosphate, 313 K, 800 MHz, 1H/15N-TROSY

Row | binding result (hNEU1-TMS2) | Binder | stoichiometry N [1]
1 | binds | B1 | –
2 | – | B2 | 2
